Data as given in US20230028110A1 (ADAPTATE BIOTHERAPEUTICS, published 2023).

Key:
[1] = molecular target: T1, L1 (DV1-GV4), soluble human Vδ1/Vγ4 γδ TCR heterodimer in leucine zipper format (human); experiment: DELFIA ELISA on antigen L1 (TRDV1/TRGV4), 1/2 dilution series of mAb
T1 construct: Biotinylated in the DELFIA ranking; also called Antigen L1 (TRDV1/TRGV4); human DV1-GV4; not shown: gamma chain: Vγ4 (TRGV4) domain on a TCR constant region, leucine zipper, histidine tag

[2] = molecular target: T2, Her2 on Her2+ breast cancer cells (SK-BR-3, BT-474) (human, UniProt P04626 23-1255); experiment: flow cytometry on SK-BR-3 cells, anti-human IgG secondary antibody
T2 construct: whole, on cells; also called ErbB-2; CD340

[3] = molecular target: T3, Cyno DV1/GV77 antigen, recombinant cynomolgus Vδ1 heterodimer (cynomolgus monkey); experiment: SPR (Reichert 4SPR), antibody on Protein A chip, Vδ1 heterodimer at 6.25-100 nM as analyte
T3 construct: also called cyno TRDV1; Cyno DV1-77; not shown: delta CDR3/J, TCR constant region, zipper and tag; the whole gamma chain GV77
T3 sequence (delta, as listed by the source limits assumed): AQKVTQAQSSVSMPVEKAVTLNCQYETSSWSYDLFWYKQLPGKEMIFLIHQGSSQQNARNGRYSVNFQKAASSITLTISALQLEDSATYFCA

[4] = molecular target: T1, L1 (DV1-GV4), soluble human Vδ1/Vγ4 γδ …; experiment: as above
[5] = molecular target: Vδ1 chain of the γδ TCR on human Vδ1 γδ T cells (human); experiment: cell-based or functional assay
[6] = molecular target: T3, Cyno DV1/GV77 antigen, recombinant …; experiment: DELFIA ELISA, cyno antigen; heat map cell of the clone
[7] = molecular target: T1, L1 (DV1-GV4), soluble human Vδ1/Vγ4 γδ …; experiment: DELFIA ELISA, 0.4 nM human TRDV1 antigen; heat map cell of the clone
[8] = molecular target: T4, Vδ1 chain of the γδ TCR on human Vδ1 γδ T cells (human); experiment: flow cytometry binding to Vδ1 γδ T cells, donor ATS006; column head printed 'IC50', unit nM from the chart axis and FIG. 34D
T4 construct: whole, on cells; also called cell surface Vδ1 TCR; Vδ1-positive γδ T cells
T4 sequence (A0A1B0GX56 22-115, stated change not applied): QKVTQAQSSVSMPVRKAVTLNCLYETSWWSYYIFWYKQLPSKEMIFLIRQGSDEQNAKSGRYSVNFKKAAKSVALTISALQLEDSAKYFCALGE
Protocol: (§1) All incubation steps were performed at 4° C. and mAb binding was determined using flow cytometry to measure the median level of fluorescence. Logarithmic four parameter dose-response curves were fitted using GraphPad Prism 9. […] For Vδ1-positive γδ T cell, data is represented as the mean two donors.
(§2) A range of target cells were assayed to determine the specificity and affinity of Vδ1 mAb binding. This included expanded skin-derived Vδ1 γδ T-cells, HEK293T cells, Raji cells, and multiple leukocyte subsets within human primary blood mononuclear cells. Adherent or semi-adherent cells (skin-derived Vδ1 γδ T-cells, HEK293T) were detached from tissue culture flask and resuspended in PBS. Similarly, non-adherent cell types (Raji, PBMC), were harvested and resuspended in PBS. Cells were seeded at a final density of 100,000 cells per well in v-bottom 96-well plates. Cells underwent centrifugation and the cell pellets were resuspended in FcR blocking reagent according to the manufacturer's instructions, and incubated for 20 minutes at 4C prior to a further wash. […] To determine the quantity of mAb bound to the cell surface, the cells were then stained with a murine anti-human IgG secondary antibody, conjugated to APC (dilution: 1:100). For Vδ1 γδ T-cells, HEK293T and Raji, the cells were also stained solely with a viability dye.

[9] = molecular target: T1, L1 (DV1-GV4), soluble human Vδ1/Vγ4 γδ …; experiment: SPR (Reichert 4SPR), antibody on Protein A chip, human Vδ1 antigen as analyte; average of two replicates on two instruments
Description: The binding affinity of the antibodies to target (i.e. the Vδ1 chain of a γδ TCR) is established by SPR analysis using a Reichert 4SPR instrument (Reichert Technologies).
The binding interaction of Vδ1 and the affinity-matured mAbs were modelled according to Langmuir 1:1 binding.

[10] = molecular target: T4, Vδ1 chain of the γδ TCR on human Vδ1 γδ …; experiment: cell-based or functional assay; remark: listed apart in the source
[11] = molecular target: T1, L1 (DV1-GV4), soluble human Vδ1/Vγ4 γδ …; experiment: DELFIA, 100 nM biotinylated L1
[12] = molecular target: T4, Vδ1 chain of the γδ TCR on human Vδ1 γδ …; experiment: flow cytometry binding to Vδ1 γδ T cells, donor TS164; column head printed 'IC50', unit nM from the chart axis and FIG. 34D
Protocol: as §1, §2

[13] = molecular target: T3, Cyno DV1/GV77 antigen, recombinant …; experiment: SPR (Reichert 4SPR), antibody on Protein A chip
[14] = molecular target: T1, L1 (DV1-GV4), soluble human Vδ1/Vγ4 γδ …; experiment: SPR (Reichert 4SPR), antibody on Protein A chip
[15] = molecular target: T1, L1 (DV1-GV4), soluble human Vδ1/Vγ4 γδ …; experiment: SPR, captured IgG, human DV1-GV4 flown over
[16] = molecular target: T1, L1 (DV1-GV4), soluble human Vδ1/Vγ4 γδ …; experiment: SPR (summary table)
[17] = molecular target: T5, Recombinant human OX40 (human, UniProt P43489 29-216, limits assumed); experiment: SPR (Reichert 4SPR), antibody on Protein A chip, antigen flown over
T5 construct: also called CD134
T5 sequence (looked up): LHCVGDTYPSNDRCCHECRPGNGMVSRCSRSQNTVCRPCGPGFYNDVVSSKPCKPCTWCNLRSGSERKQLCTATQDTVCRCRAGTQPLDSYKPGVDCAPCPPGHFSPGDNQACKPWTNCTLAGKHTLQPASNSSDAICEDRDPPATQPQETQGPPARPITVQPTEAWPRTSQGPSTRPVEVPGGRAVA
Protocol: (§3) Recombinant human Vδ1 heterodimer or human OX40 was flown over the cell at a top concentration of 100 nM.

[18] = molecular target: T1, L1 (DV1-GV4), soluble human Vδ1/Vγ4 γδ …; experiment: as above
Protocol: as §3

[19] = molecular target: T6, OX40 on activated CD4 T-cells; experiment: flow cytometry on anti-CD3/anti-CD28-activated CD4 T-cells, anti-human IgG secondary antibody, % cells bound IgG
T6 construct: also called OX40+ CD4 T-cells
T6 chain: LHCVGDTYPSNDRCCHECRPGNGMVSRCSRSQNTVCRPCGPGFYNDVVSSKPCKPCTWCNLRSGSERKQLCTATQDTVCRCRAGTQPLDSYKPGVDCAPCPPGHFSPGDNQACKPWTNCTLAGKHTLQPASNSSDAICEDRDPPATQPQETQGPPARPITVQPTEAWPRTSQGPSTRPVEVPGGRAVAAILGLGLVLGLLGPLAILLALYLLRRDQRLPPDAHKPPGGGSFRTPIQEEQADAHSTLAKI
Protocol: Initially CD4+ T-cells were negatively selected by magnetic sorting from PBMC buffy coats extracted from whole blood. Following activation by anti-CD3/anti-CD28 antibodies conjugated to Dynabeads (Invitrogen), cell surface expression of OX40 was elevated on CD4 T-cells. […] After washing, cells were incubated for a further 15 minutes with anti-human IgG secondary antibodies before washing and fixing. The amount of antibody bound to each cell type was determined by flow cytometry.

[20] = molecular target: T7, OX40 on OX40+ NFAT Jurkat cells (human, UniProt P43489); experiment: cell-based or functional assay
T7 sequence (receptor, looked up): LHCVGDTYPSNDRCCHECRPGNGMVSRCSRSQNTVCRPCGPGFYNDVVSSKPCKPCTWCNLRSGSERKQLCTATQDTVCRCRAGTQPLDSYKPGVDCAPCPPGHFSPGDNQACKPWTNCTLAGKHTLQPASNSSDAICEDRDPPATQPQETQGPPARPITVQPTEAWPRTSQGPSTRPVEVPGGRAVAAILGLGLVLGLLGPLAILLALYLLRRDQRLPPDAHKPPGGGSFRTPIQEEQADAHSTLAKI

[21] = molecular target: T4, Vδ1 chain of the γδ TCR on human Vδ1 γδ …; experiment: flow cytometry on Vδ1 γδ T-cells, anti-human IgG secondary antibody, % cells bound IgG
[22] = molecular target: T4, Vδ1 chain of the γδ TCR on human Vδ1 γδ …; experiment: flow cytometry on Vδ1 γδ T-cells, anti-human IgG secondary antibody, % IgG bound cells
Protocol: (§4) After washing, cells were incubated for a further 15 minutes with anti-human IgG secondary antibodies before washing and fixing. The amount of antibody bound to each cell type was determined by flow cytometry.

[23] = molecular target: T8, Recombinant human MSLN (human, UniProt Q13421 296-580, limits assumed); experiment: SPR (Reichert 4SPR), antibody on Protein A chip, antigen flown over; column head prints FAPα
T8 construct: also called mesothelin
T8 sequence (Q13421 other isoform, or with tags, fused parts or gaps limits assumed): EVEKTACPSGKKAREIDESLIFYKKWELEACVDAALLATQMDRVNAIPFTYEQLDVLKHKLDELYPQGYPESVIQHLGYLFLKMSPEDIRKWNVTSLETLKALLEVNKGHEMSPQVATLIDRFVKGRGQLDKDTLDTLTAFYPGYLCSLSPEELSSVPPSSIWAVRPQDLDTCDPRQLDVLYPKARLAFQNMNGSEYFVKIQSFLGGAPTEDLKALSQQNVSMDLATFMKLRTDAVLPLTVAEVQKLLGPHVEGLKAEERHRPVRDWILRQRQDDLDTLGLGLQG
Protocol: (§5) Recombinant human Vδ1 heterodimer or human MSLN was flown over the cell at a top concentration of 100 nM with the following parameters: 180 s association, 480 s dissociation, flowrate 25 μL/min, running buffer PBS+0.05% Tween 20. All experiments were performed at room temperature.

[24] = molecular target: T1, L1 (DV1-GV4), soluble human Vδ1/Vγ4 γδ …; experiment: SPR (Reichert 4SPR), antibody on Protein A chip, antigen flown over; remark: listed apart in the source
Protocol: as §5

[25] = molecular target: T9, FAPα on FAPα+ fibroblasts (human, UniProt Q12884 1-760); experiment: flow cytometry on BJ fibroblasts, anti-human Fc secondary antibody, % IgG bound cells
T9 construct: whole, on cells; also called FAPα+ target cells (BJ fibroblasts, human dermal fibroblasts)
Protocol: (§6) After washing, cells were incubated for a further 15 minutes with anti-human Fc secondary antibodies before washing and fixing. The amount of antibody bound to each cell type was determined by flow cytometry.

[26] = molecular target: T4, Vδ1 chain of the γδ TCR on human Vδ1 γδ …; experiment: flow cytometry on Vδ1 γδ T-cells, anti-human Fc secondary antibody, % IgG bound cells
Protocol: as §6

[27] = molecular target: Recombinant human FAPα (human, UniProt Q12884 26-760); experiment: SPR (Reichert 4SPR), antibody on Protein A chip, antigen flown over
Protocol: (§7) Recombinant human Vδ1 heterodimer or human FAPα was flown over the cell at a concentration of 100 nM with the following parameters: 180 s association, 480 s dissociation, flowrate 25 μL/min, running buffer PBS+0.05% Tween 20. All experiments were performed at room temperature.

[28] = molecular target: T1, L1 (DV1-GV4), soluble human Vδ1/Vγ4 γδ …; experiment: as above; remark: listed apart in the source
Protocol: as §7

[29] = molecular target: PD-1 on PD-1+ NFAT Jurkat cells (Promega, JA2191) (UniProt Q15116 25-288, limits assumed); experiment: cell-based or functional assay
Chain of PD-1 on PD-1+ NFAT Jurkat cells (Promega, JA2191) (Q15116 25-288 limits assumed): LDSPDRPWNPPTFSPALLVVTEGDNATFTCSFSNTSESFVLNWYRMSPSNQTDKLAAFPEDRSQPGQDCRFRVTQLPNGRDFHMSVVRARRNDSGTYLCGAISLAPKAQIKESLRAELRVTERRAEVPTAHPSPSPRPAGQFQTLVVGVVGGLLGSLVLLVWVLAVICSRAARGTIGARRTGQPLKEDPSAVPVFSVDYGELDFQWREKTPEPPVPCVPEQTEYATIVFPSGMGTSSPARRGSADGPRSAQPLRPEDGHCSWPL

[30] = molecular target: T4, Vδ1 chain of the γδ TCR on human Vδ1 γδ …; experiment: flow cytometry on Vδ1 γδ T-cells, anti-human IgG secondary antibody, % cells bound IgG; remark: listed apart in the source
Protocol: as §4

[31] = molecular target: T1, L1 (DV1-GV4), soluble human Vδ1/Vγ4 γδ …; experiment: SPR (Reichert 4SPR), antibody on Protein A chip, antigen flown over; remark: listed apart in the source
Protocol: (§8) Recombinant human Vδ1 heterodimer or human PD-1 was flown over the cell at a top concentration of 100 nM.

[32] = molecular target: T10, Recombinant human PD-1 (human, UniProt Q15116 25-167, limits assumed); experiment: SPR (Reichert 4SPR), antibody on Protein A chip, antigen flown over; column head prints TIGIT
T10 construct: also called programmed cell death protein 1
T10 sequence (Q15116 25-167 limits assumed): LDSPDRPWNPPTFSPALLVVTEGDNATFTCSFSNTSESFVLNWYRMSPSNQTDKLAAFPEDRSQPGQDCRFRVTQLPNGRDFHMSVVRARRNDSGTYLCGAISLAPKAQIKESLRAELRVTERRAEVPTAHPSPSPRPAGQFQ
Protocol: as §8

T1 sequence (main, as listed by the source): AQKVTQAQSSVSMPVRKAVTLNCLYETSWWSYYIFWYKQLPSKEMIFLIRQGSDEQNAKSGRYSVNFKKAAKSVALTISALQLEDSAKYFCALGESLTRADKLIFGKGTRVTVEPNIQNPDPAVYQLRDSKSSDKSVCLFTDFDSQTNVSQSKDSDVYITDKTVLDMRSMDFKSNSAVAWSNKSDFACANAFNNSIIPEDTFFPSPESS

B1: 1245_P02_G04 (antibody, IgG1, V domains shown)
VH: QVQLQQSGPGLVKPSQTLSLTCAISGDSVSSKSAAWNWIRQSPSRGLEWLGRTYYRSKWSTDYAASVKSRITINPDTSKNQLSLQLNSVTPEDTAVYYCARTWSGYVDVWGQGTLVTVSS
VL: DIQMTQSPPALSASVGDRVTITCRASQDINDWLAWYQHKPGKAPKLLIYDASSLESGVPSRFSGSGSGTEFTLTISSLQPDDFATYYCQQSYSTPQVTFGQGTRLEIK
notes: also called ADT1-4; parental ADT1-4
EC50 (read off the curve) [1]: ~0.07 µg/mL
binding result [2]: no binding (tested: about 300 nM)
Kd [3]: 397 nM
Kd [4]: 47 nM
IC50 TCR DR (no THP-1) [5]: 38.2 nM
IC90 TCR DR (noTHP-1) [5]: 72.4 nM
ELISA signal (heat map) [6]: 196
ELISA signal (heat map) [7]: 1200
EC50 [8]: 108 nM
Kd [9]: 149 nM
TCR downregulation IC50, soluble assay, added in solution [10]: 38.3 nM
DELFIA signal at 100 nM L1 [11]: 5900 fluorescence units
EC50 [12]: 576 nM

B2: ADT1-4-2 (L74S) (antibody, V domains shown)
VH: EVQLQQSGPGLVKPSQTLSLTCAISGDSVSSKSAAWNWIRQSPSRGLEWLGRTYYRSKWSTDYAASVKSRITINPDTSKNQLSLQLNSVTPEDTAVYYCARTWVGYVDRWGQGTLVTVSS
VL: DIQMTQSPPALSASVGDRVTITCRASQDINDWLAWYQHKPGKAPKLLIYDASSLESGVPSRFSGSGSGTEFTLTISSLQPDDFATYYCQQKYSAPQVTFGQGTRLEIKR
notes: Captured on Protein A
Kd [3]: 61 nM
Kd [4]: 4 nM
fold reduction in affinity against ADT1-4-2 [13]: ~23 fold
fold reduction in affinity against ADT1-4-2 [14]: ~11 fold

B3: ADT1-4-1 (antibody, IgG1, V domains shown)
VH: EVQLQQSGPGLVKPSQTLSLTCAISGDSVSSKSAAWNWIRQSPSRGLEWLGRTYYRSKWSTDYAASVKSRITINPDTSKNQLSLQLNSVTPEDTAVYYCARTWVGYADVWGQGTLVTVSS
VL: DIQMTQSPPALSASVGDRVTITCRASQDINDWLAWYQHKPGKAPKLLIYDASSLESGVPLRFSGSGSGTEFTLTISSLQPDDFATYYCQQRYSTPIVTFGQGTRLEIK
notes: IgG1
Kd [15]: 0.08 nM
Kd [16]: 0.08 nM

B4: Anti-Vδ1xanti-OX40 (ADT1-4-2xpogalizumab) bispecific antibody (bispecific antibody, human IgG1, kappa)
light: DIQMTQSPPALSASVGDRVTITCRASQDINDWLAWYQHKPGKAPKLLIYDASSLESGVPLRFSGSGSGTEFTLTISSLQPDDFATYYCQQKYSAPQVTFGQGTRLEIKRTVAAPSVFIFPPSDEQLKSGTASVVCLLNNFYPREAKVQWKVDNALQSGNSQESVTEQDSKDSTYSLSSTLTLSKADYEKHKVYACEVTHQGLSSPVTKSFNRGEC
heavy: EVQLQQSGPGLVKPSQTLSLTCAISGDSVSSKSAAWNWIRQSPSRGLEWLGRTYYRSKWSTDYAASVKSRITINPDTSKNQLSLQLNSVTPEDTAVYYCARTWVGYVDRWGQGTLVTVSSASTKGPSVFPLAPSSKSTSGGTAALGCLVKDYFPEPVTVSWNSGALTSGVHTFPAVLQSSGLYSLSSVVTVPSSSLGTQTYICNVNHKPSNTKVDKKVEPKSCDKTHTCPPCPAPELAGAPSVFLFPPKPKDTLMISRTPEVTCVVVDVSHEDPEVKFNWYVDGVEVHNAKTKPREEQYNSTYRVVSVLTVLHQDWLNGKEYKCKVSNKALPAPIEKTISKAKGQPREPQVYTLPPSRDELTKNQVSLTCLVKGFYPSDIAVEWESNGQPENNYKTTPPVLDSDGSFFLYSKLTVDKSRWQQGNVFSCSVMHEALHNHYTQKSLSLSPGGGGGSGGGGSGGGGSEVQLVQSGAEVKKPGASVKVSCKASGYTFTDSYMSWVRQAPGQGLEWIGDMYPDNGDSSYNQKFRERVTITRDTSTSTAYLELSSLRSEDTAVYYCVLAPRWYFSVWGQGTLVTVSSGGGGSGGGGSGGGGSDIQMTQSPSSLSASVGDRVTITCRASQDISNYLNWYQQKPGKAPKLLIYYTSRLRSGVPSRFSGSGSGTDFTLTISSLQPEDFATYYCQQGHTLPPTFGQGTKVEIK
notes: also called ADT1-4-2xOX40; Vδ1-OX40 bispecific antibody
Kd [17]: 1.63 nM
Kd [18]: 1.2 nM
EC50 (read off the curve) [19]: ~2 nM
EC50 (read off the curve), OX40+ NFAT Jurkat activation assay [20]: ~20 nM
EC50 (read off the curve) [21]: ~0.3 nM

B5: Anti-Vδ1xMSLN (ADT1-4-2xMSLN) bispecific antibody (bispecific antibody, human IgG1, kappa)
light: DIQMTQSPPALSASVGDRVTITCRASQDINDWLAWYQHKPGKAPKLLIYDASSLESGVPLRFSGSGSGTEFTLTISSLQPDDFATYYCQQKYSAPQVTFGQGTRLEIKRTVAAPSVFIFPPSDEQLKSGTASVVCLLNNFYPREAKVQWKVDNALQSGNSQESVTEQDSKDSTYSLSSTLTLSKADYEKHKVYACEVTHQGLSSPVTKSFNRGEC
heavy: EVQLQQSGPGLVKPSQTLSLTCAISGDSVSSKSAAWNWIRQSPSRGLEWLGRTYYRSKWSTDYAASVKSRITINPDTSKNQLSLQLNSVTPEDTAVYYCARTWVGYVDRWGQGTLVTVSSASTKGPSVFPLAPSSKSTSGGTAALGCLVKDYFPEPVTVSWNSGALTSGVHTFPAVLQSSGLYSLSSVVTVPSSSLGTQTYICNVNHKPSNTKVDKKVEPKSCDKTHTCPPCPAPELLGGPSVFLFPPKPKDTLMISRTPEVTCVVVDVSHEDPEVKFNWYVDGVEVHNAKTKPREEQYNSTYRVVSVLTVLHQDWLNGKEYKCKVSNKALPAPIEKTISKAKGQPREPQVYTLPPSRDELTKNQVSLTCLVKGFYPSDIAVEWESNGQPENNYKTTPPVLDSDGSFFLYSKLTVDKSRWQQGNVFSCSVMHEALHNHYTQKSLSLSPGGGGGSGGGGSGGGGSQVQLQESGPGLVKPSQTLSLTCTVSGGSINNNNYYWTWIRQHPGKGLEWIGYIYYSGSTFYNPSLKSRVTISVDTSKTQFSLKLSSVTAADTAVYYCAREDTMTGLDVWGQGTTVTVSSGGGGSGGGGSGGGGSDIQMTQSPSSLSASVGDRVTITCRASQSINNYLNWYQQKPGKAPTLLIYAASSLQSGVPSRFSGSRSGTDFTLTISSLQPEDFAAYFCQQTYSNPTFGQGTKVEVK
notes: also called ADT1-4-2 × MSLN; MSLN-Vδ1 bispecific antibody
EC50 (read off the curve) [22]: ~0.5 nM
Kd [23]: 0.87 nM
Kd [24]: 0.026 nM

B6: Anti-Vδ1xFAPα (ADT1-4-2x sibrotuzumab) bispecific antibody (bispecific antibody, human IgG1, kappa)
light: DIQMTQSPPALSASVGDRVTITCRASQDINDWLAWYQHKPGKAPKLLIYDASSLESGVPLRFSGSGSGTEFTLTISSLQPDDFATYYCQQKYSAPQVTFGQGTRLEIKRTVAAPSVFIFPPSDEQLKSGTASVVCLLNNFYPREAKVQWKVDNALQSGNSQESVTEQDSKDSTYSLSSTLTLSKADYEKHKVYACEVTHQGLSSPVTKSFNRGEC
heavy: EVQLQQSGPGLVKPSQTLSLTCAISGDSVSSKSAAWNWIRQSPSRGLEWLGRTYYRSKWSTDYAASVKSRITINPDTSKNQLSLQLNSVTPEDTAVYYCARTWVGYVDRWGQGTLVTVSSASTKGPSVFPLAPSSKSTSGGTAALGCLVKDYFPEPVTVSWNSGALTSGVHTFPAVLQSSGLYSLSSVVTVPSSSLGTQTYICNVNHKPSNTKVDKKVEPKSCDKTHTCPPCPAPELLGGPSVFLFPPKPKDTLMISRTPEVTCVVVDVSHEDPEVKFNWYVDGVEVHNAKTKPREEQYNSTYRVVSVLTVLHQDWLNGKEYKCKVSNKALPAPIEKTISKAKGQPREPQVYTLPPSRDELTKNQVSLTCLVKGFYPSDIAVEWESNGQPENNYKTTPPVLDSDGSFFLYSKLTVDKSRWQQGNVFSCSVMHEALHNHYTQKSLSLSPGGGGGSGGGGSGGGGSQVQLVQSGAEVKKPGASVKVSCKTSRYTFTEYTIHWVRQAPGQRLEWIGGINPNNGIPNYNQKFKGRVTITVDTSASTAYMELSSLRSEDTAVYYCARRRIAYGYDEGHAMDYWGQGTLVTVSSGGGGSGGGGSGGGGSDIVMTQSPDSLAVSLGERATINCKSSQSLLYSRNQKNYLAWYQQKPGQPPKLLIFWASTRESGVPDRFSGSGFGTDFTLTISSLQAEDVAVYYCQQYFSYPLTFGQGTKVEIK
notes: also called ADT1-4-2 × FAP alpha; Vδ1-FAPα bispecific antibody
EC50 (read off the curve) [25]: ~1 nM
EC50 (read off the curve) [26]: ~0.5 nM
Kd [27]: 1.4 nM
Kd [28]: 0.26 nM

B7: Anti-Vδ1xAnti-PD-1 (ADT1-4-2xpembrolizumab) bispecific antibody (bispecific antibody, human IgG1, kappa)
light: EIVLTQSPATLSLSPGERATLSCRASKGVSTSGYSYLHWYQQKPGQAPRLLIYLASYLESGVPARFSGSGSGTDFTLTISSLEPEDFAVYYCQHSRDLPLTFGGGTKVEIKRTVAAPSVFIFPPSDEQLKSGTASVVCLLNNFYPREAKVQWKVDNALQSGNSQESVTEQDSKDSTYSLSSTLTLSKADYEKHKVYACEVTHQGLSSPVTKSFNRGEC
heavy: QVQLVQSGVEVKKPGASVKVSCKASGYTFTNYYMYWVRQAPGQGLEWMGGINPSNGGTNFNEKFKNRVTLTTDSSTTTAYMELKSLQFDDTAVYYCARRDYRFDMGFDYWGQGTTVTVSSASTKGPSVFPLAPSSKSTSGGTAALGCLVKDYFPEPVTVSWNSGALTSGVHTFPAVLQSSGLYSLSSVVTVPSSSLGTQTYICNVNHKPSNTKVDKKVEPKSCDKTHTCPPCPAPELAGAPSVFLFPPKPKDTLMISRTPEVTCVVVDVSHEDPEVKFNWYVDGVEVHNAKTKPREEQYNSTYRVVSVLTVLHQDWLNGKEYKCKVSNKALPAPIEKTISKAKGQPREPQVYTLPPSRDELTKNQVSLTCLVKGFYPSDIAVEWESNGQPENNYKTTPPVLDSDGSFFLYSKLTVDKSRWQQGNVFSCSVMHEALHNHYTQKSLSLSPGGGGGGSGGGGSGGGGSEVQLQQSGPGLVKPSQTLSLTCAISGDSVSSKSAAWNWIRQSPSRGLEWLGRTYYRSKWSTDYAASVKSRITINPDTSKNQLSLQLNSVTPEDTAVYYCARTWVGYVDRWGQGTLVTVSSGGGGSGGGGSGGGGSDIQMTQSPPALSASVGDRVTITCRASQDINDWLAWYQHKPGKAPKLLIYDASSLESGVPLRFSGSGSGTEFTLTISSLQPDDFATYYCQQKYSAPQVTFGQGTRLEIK
notes: also called PD-1xADT1-4-2; Vδ1-PD-1 bispecific antibody
EC50 (read off the curve), PD-1/PD-L1 blockade reporter assay [29]: ~1 nM
EC50 (read off the curve) [30]: ~0.7 nM
Kd [31]: 1.5 nM
Kd [32]: 0.9 nM
